Assay: yeast display, Sf9 membrane polyspecificity reagent, FACS + sequencing; frameworks hold sequencing errors
Outline: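 A synthetic nanobody library was expressed on Saccharomyces cerevisiae BJ5465 by galactose induction for 36–48 hours. The library was stained for 1 hour at 4 °C with 10% biotinylated, detergent-solubilized Sf9 membrane reagent and enriched with streptavidin microbeads before FACS. Low and high (top ~1%) gates were set on anti-HA fluorescence for expression and streptavidin fluorescence for reagent binding, and each polyreactivity label reflects the gate of origin.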

Row | Sequence | polyreactivity (PSR sort gate)
1 | QVQLVESGGGLVQAGGSLRLSCAASGFTFPYYAVGWYRQAPGKERELVAAISKGGTRTYYADSVKGRFTISRDNAKNTVYLQMNSLKPEDTAVYYCAATRIYQEMDYWGQGTQVTVSS | high polyreactivity
2 | QVQLVESGGGLVQAGGSLRLSCAASGFIFLSNAMGWYRQAPGKERELVAAITSGGSTNYADSVKGRFTISRDNAKNTVYLQMNSLKPEDTAVYYCAARAPQWTFALGRWDRDYWGQGTQVTVSS | low polyreactivity
3 | QVKLEESGGGLVQAGGSLRLSSAASGYTIGIYAMGWYRQAPGKERELVAAISADGGITYYADSVKGRFTISRDNAKNTVYLQMNSLKPEDTAFYYCNTLVDQDAYAGFRLDYWGQGSQVTVSS | low polyreactivity
4 | QVQLVESGGGLVHAGGSLRLSCAASGLIFYDNMGWYRQAPGKERELVAAISSSGGSTSYADSVKGRFTISRDNAKNTVYLQMNSLKPEDTAVYYCAAVSGPFVQTSGNGEYDYWGQGTQVTVSS | low polyreactivity
5 | QVQLVESGGGLVQAGGSLRLSCAASGRTFDPYAMGWYIQAPGKERELVAAITSGDDTYYADSVKGRFTISRDNAKNTVYLQMNSLKPEDTAVYYCAADSFTPDYYSHDYWGQGTQVTVSS | low polyreactivity
6 | QVQLVESGGGLVQAGGSLRLSCAASGRTYTRYALGWYRQAPGKERELVAAISGGGGSTYYADSVKGRFTISRDNAKNTVYLQMNSLKPEDTAVYYCNAAARGSSFDYWGQGTQVTVSS | low polyreactivity
7 | QVQLVESGGGLVQAGGSLRLSCAASGRTFYWYAMGWYRQAPGKERELVAAITSGGSTNYADSVKGRFTISRDNAKNTVYLQMNSLKPEDTAVYYCAARRSVRRGGDYYWGQGTQVTVSS | high polyreactivity
8 | QVQLVESGGGLVQAGGSLRLSCAASGRIFAYYAMGWYRQAPGKERELVAAISSGGTTNYADSVKGRFTISRDNAKITVYLQMNSLIPEDTAVYYCNADGWRRSRQYYYWGQGTQVTVSS | low polyreactivity
9 | QVQLVESGGGLVQAGGSLRLSCAASGSIFYSNAMGWYRQAPGKEREFVAAISAGGGSTYYADSVKGRFTISRDNAKNPVYLQMNSLKPEDTAVYYCAAQQYKIIYPYDYWGQGTQVTVSS | low polyreactivity
10 | QVQLVESGGGLVPAGGSLRLSCAASGLTFYYYAMGWSRQAPGKERELVAGISGSDGSTYYADSVKGRFTISRDNAKNTVYLQMNSLKPEDTAVYYFAAEYYYPWPLYYITDGIYDMYYWGQGTQVTVSS | low polyreactivity
11 | QVQLVESGGGLVPSGGSLRLSCAASGRIFTSNAMGWYRQAPGKERELVAAISKSGGRTYYADSVKGRFTISRDNAKNTVYLQMNSLKPEETAVYYFAKDNFWGQGTQVTLSS | high polyreactivity
12 | QVQLVESGGGLVQAGGSLRLSCAASGFTFGTYAMGWYRPAPGKERELVAAITRRGDNTYYADSVKGRFTISRDNAKNTVYLQMNSLNPEDTAVYYCIAAKGGRYPDYDYWGQGTQVTVSS | high polyreactivity
13 | QVHLVESGGGLVQAGGSLRLSCAASGRTFVRYAMGWYRQAPGKERELVARITARGTSTYYADSVKGRFTISRDNAKNTVYLQMNRLKPEDTAVYYCNKVRTFRDKSRYDYWGQGTQVTVSS | low polyreactivity
14 | QVQLVESGGGLVQAGGSLRLSCAASGRIFKYYVMGWYRQAPGKERELVAGISSSGVSTYYADSVKGRFTISRDNAKNTVYLQMNSLKPEDTAVYYCNAKSRTGYGRGDYWGQGTQVTVSS | high polyreactivity
15 | QVQLVESGGGLVQAGGSLRLSCAASGSIFYHYAMGWYRQAPGKEWELVAAITITGGSTYYADSVKGRFTISRDNAKNTVYLQMNSLKPEDTAVYYCAAEGWYGYQWFDYWGQGTQVTVSS | high polyreactivity
16 | QVQLVESGGGLVQAGGSLRLSCAASGSIFASNAMGWYRQAPGKEREFVAAITWRTDRTYYADSVKGRFTISRDNAKNTVFLQMNSLKPEDTAVYYCAADTWFYRFYYWGQCTQVTVSS | high polyreactivity
17 | QVQLVESGGGLVQAGGSLRLSCAASGSNFTSNGMGWYRQAPGKERELVAAITRRGGRTYYADSVKGRFTISRDNAKNTVYLQMNSLKPEDTAVYYCAAKSTSLYDYWGQGTQVTVSS | low polyreactivity
18 | QVQLVESGGGLVQAGGSLRLSCAASGSIFDVNAMGRYRQAPGKERELVAAISDSGGSTYYADSVKGRFTISRDNAKNTVYLQMNSLKPEDTAVYYCNADWSWYNYYDFDYWGQGTQVTVSS | low polyreactivity
19 | QVQLVESGGGLVQAGGSLRLSCAASGFIFYLYAMGWYRQAPGKEMELVAAISWGGGTTYYADSVKGRFTISRDNAKNTVYLKMNSLKPEDTAVYYCAAETEYYSYRFDYWGQGTQVTVSS | high polyreactivity
20 | QVQLVESGGGLVQAGGSLRLSCAASGFTITNYAMGWYRQAPGKERELVAAISTGGGRTYYADSVKGRFTISRDNAKNTVYLQMYSLKPEDTAVYYCAVVPYNISKTEQPGMDYWGQGTQVTVST | high polyreactivity
21 | QVQLVESGGGLVQAGGSLLLSCAASGGTFYYYAMGWYRQAPGKERELVASISSRGGSTYYADSVKGRFTISRDNAKNTVYLQMNSLKPEDTAVYYCAARSLYRGFGYWGQGTQVTVSS | high polyreactivity
22 | QGQLVESGGGLVQAGGSLRLSCPASGRIFNTYAMGWYRQAPGKERELVAAINWSGGRTYYADSVKGRFTISRDNAKNTVYLQMNSLKPEDSAVYYCKARGRRRVPEFDYWGQGSQVTVSS | high polyreactivity

Row | Sequence | polyreactivity (PSR sort gate)
23 | QVQLVESGGGLVQAGGSLRLSCAASGRTFRRNVMGWYRQAPGKERELVAAISSGANTNYADSVKGRFTISRDNAKNTVYLQMNSLKPEDTAVYYCNARWQEPLKYDYWGQGTQVTVSS | low polyreactivity
24 | QVQLVESGGGLVQARGSLRLSCASSGSIFRFNGMGWYRQPPGKERELVATISSGGRTNYADSVKGRFTISRDNAKNTVYLQMNSLKPEDTAVYYCAARSPLRTSYYYPYYYWGQGTQVTVSS | high polyreactivity
25 | QVQLVESGGGLVQAGGSLRLSCAASGSIFDFYAMGWYRQAAGKERELVASITGRGGSTYYADSVKGRFSISRDKAKNTVYFQMNSLKPEDTAVYYCAAATFGRGGFEYWGQGTKVTVSS | high polyreactivity
26 | QVQLVESGGGLVQAGGSLRLTCAASGRTFNVNVMGWSRQAPGKERELVAAIRYTGGSTYADSVKGRFTISRDNAKNTVYLQMNSLKPEDTAVYYCNADTFFPFDHGMDYWGQGTQVTVSS | low polyreactivity
27 | QVQLVESGGGLVQAGGSLRLSCAASGLIFGGTAMGWYRQAPGKERELVAAITYRTGSTYYADSVKGRFTISRDNAKNTVYLQMNSLKPEDTAVYYCAAAVSLGYPVAFYYWGQGTQVTVSS | low polyreactivity
28 | QDQLVESGGGLVQAGGSLRLSCAASGFTIERYAMGWYRQAPGKERELVAVISTSGGSTYYADSVKGRFTISRDNGKNTVYLLMNSLKPEDTAVYYCAAPSVSQYSSKKYDYWGQGTQVTVSS | low polyreactivity
29 | QVQLVESGGGLVQAGGSLRLSCAASGRIFAYYAMGWYRQAPGKERELVAAITTNGGGTYYADSVKGRFTISRDNETNTVYLQMNSLKAEDTAVYYCAKRSWIEYDYWGQGTQVTVSS | low polyreactivity
30 | QVQLVESGGGLVQAGGSLRLSCAAYGRTFWPNAMGWYRQAPGKERELVAAFSRRSGSTYYADSVKGRFTISRDNAKNTVYLQMNSLKPEDTAVYYCAAKYRAHGNHSWGQGTQVTVSS | high polyreactivity
31 | QVQLVESGGGLVQAGGSLRLSCAASGSTFRYNAMGWYRQPPGKERELVAAISSGGSTNYADSVKGRFTISRDNAKNTVYLQMNSLKPEDTAVYYCAATRPRIPVYQNNYGYWGQGTQVTVSS | high polyreactivity
32 | QVQLVESGGGLVQAGGSLRLSCAASGSIFYFNAMGWYRQAPGKERELVADITSGGSTYYADSVKGRFTISRDNAKNTVYLQMNSLKPEDTAVYYCNAALPVTRSERYGSDYWGQGTQVTVSS | low polyreactivity
33 | QVQLVESGGGLVQAGGSLRLSCAASGIIFGGYTMGWYRQAPGKERELVAAISSTGASTYYADSVEGRFTISRDNAKNTVYLQMNSLKPEDTAVYYCNAKRAPWGTLYNYWGQGTQVTVSS | high polyreactivity
34 | QVQLVESGGGLVQAGGSLRLSCAASGRTCYSNAMGWYRQAPGKERELVAAITRGASTKYADSVKGRFTISRDNAKNTVYLQMNSLKPEDTAVYYCATARYPRYIYDYWGQGTQVTVSS | low polyreactivity
35 | QVQLVESGGGLVQAGGSLRLSCAASGSIYTHYAMGWYRQAPRKQRELVAAISRRGGSTYYADSVKGRFTISRDNAKNTVYLPMHSLKPEDTAVYYCAKSPDTAKEYDYWGQGTQVTVSS | high polyreactivity
36 | QVQLVESGGGLVQAGGSLRLSCAASGITFPWYAMGWYIQAPGKERELVAAISFSGGSTYYADSVKWRFTISRDNAKNTVYLQMNCLKPVDTAVYYCAAVDGYSYIYAAGDYWGQGTQVTVSS | low polyreactivity
37 | QVQLVESGGGLVQAGGSLRLSCADSGFTFYTYTMGWYRPAPGKERELVAVISRSGGSTYYADSVKGRFTISRDNAKNTVYLQMNSVKPEDTAVYYCNAGYWRFIDSYDYWGQGTQVTVSS | high polyreactivity
38 | QVQLVESGGGLVQAGGSLRLSCAASGRTFTEYAMGWYRQAPGKERELVARISIGDSTYYADSVKGRFTISRDNAKNTVYLQMNSLKPEDTAVYYCNAEYSRSYRYDEGYWGQGTQVTVSS | low polyreactivity
39 | QVQLVESGGGLVQAGGSLRLSCAASGRIFDSYAMGWYRQAPGKERELVAAISFGGDTYYADSVKGRFTISRDNAKNTVYLQMNSLKPEDTAVYYCAKDNPAALFDSWGQGTQVTVSS | low polyreactivity
40 | QVQLVESGGGLVHAGGSLRLSCAASGSIFSIYAMGWYRQAPGTERELVAAITKSGGSTYYADSVKGRFTISRDNAKNTVYLQMNSLKPEDTAVYYCAAEPQHYVGYYYWGQGNQVTVSS | high polyreactivity
41 | QVQLVESGGGLVQAGGSLRLSCAASGRTSYTYTMGWYRQAPGKERELVAAISWNAGSTYYADSVKGRFTISRDNAKNTVSLQMNSLKPEDTAVYYCNRRIFGGQRMYYWGQGTQVTVSS | high polyreactivity
42 | QVQLVESGGGLVHAGGRLRLSCDASGSLFFWNTMGWYRQAPGKQRQLVAAITVSGGRTYYADSVKGRFTISRDNAKNSFYLQMYSLKPEDTAVYYCAADPYRLYGYASYTYWGQGTQVTVSS | high polyreactivity
43 | QVQLVESGGGLVQAGGSLGLSCAASGFTFHNYAMGWYRQAPGKERELVAAITWDGGSTYYAVSVKGRFTISRDKAKNTVDLQMNSLKPEDTAVYYCALDPYYYYYGDYNFDYWGQGTQVTVSS | high polyreactivity

Reference: the nanobody polyreactivity screen of Harvey et al. (2022)
